{
  "source": "paper doi:10.1101/2022.05.14.491971",
  "molecular_target": "Mab3862, antitoxin of the type 2 TA class of Mycobacterium abscessus (Mycobacterium abscessus (ATCC 19977))",
  "assay": "crystal structure",
  "data": [
    {"substance": "Mab3862, antitoxin of the type 2 TA class of Mycobacterium abscessus (natural protein)", "values": [
      {"measurement": "stoichiometry N", "value": 2}
    ]}
  ]
}
